Experimental data from patent US20090155873A1, “BIOFUEL PRODUCTION” (BIO ARCHITECTURE LAB, INC., priority 2007, published 2009).

Test: Sequential reaction of diol dehydrogenase and diol dehydratase on butyroin (GC-MS)
Format: biochemical
Conditions: 37° C., 40 hours, NADH, coenzyme B12, GC-MS, FIGS. 26-27
Description: Diol dehydrogenase ddh from Klebsiella pneumoniae MGH 78578 and diol dehydratase pduCDE from Klebsiella pneumoniae MGH 78578 were cloned into a bacterial expression vector and expressed and purified on a Ni-NTA column, as described in Example X except that 1 mM of 1,2-propanediol was added at all time during the expression and purification of diol dehydratase. The large, medium, and small subunits of the pduCDE polypeptide are encoded by the nucleotide sequences of SEQ ID NOs:103, 105, and 107, respectively, and the polypeptide sequence are set forth in SEQ ID NOs: 104, 106, and 108, respectively.
The ddh3 and pduCDE polypeptides were incubated with butyroin and their appropriate cofactors, then assayed using gas chromatography-mass spectrometry (GC-MS) for their ability to perform sequential reactions resulting in the product 4-octanone. The reaction mixture was incubated at 37° C. for 40 hours in a 0.6 mL eppendorf tube with minimal head space. The reaction product was extracted with an equivalent volume of ethyl acetate, stored in a glass vial, and sent to Thermo Fischer Scientific Instruments Division for compositional analysis by GC-MS.

Row | product formed from butyroin by sequential reactions | Molecule
1 | 4-octanone was produced from butyroin | pduCDE: diol dehydratase from Klebsiella pneumoniae MGH 78578, subunits SEQ ID NOs:104, 106, 108 (protein, Klebsiella pneumoniae MGH78578) chain 1: MRSKRFEALAKRPVNQDGFVKEWIEEGFIAMESPNDPKPSIRIVNGAVTELDDKPVEQFDLIDHFIARYGINLARAEEVMAMDSVKLANMLCDPNVKRSDIVPLTTAMTPAKIVEVVSHMNVVEMMMAMQKMRARRTPSQQAHVTNIKDNPVQIAADAAEGAWRGFDEQETTVAVARYAPFNAIALLVGSQVGRPGVLTQCSLEEATELKLGMLGHTCYAETISVYGTEPVFTDGDDTPWSKGFLASSYASRGLKMRFTSGSGSEVQMGYAEGKSMLYLEARCIYITKAAGVQGLQNGSVSCIGVPSAVPSGIRAVLAENLICSALDLECASSNDQTFTHSDMRRTARLLMQFLPGTDFISSGYSAVPNYDNMFAGSNEDAEDFDDYNVIQRDLKVDGGLRPVREEDVIAIRNKAARALQAVFAGMGLPPITDEEVEAATYAHGSKDMPERNIVEDIKFAQEIINKNRNGLEVVKALAKGGFPDVAQDMLNIQKAKLTGDYLHTSAIIVGEGQVLSAVNDVNDYAGPATGYRLQGERWEEIKNIPGALDPNELG chain 2: MEINETLLRQIIEEVLSEMKSGADKPVSFSAPAASVASAAPVAVAPVSGDSFLTEIGEAKPGTQQDEVIIAVGPAFGLAQTANIVGIPHKNILREVIAGIEEEGIKARVIRCFKSSDVAFVAVEGNRLSGSGISIGIQSKGTTVIHQRGLPPLSNLELFPQAPLLTLETYRQIGKNAARYAKRESPQPVPTLNDQMARPKYQAKSAILHIKETKYVVTGKNPQELRVAL chain 3: MNTDAIESMVRDVLSRMNSLQDGITPAPAAPTNDTVRQPKVSDYPLATRHPEWVKTATNKTLDDLTLENVLSDRVTAQDMRITPETLRMQAAIAQDAGRDRLAMNFERAAELTAVPDDRILEIYNALRPYRSTQAELLAIADDLEHRYQARLCAAFVREAAGLYIERKKLKGDD
2 | 4-octanone was produced from butyroin | ddh3: diol dehydrogenase isolated from Klebsiella pneumoniae MGH78578, SEQ ID NO:102 (protein, Klebsiella pneumoniae MGH78578) MKKVALVTGAGQGIGKAIALRLVKDGFAVAIADYNDATAKAVASEINQAGGHAVAVKVDVSDRDQVFAAVEQARKTLGGFDVIVNNAGVAPSTPIESITPEIVDKVYNINVKGVIWGIQAAVEAFKKEGHGGKIINACSQAGHVGNPELAVYSSSKFAVRGLTQTAARDLAPLGITVNGYCPGIVKTPMWAEIDRQVSEAAGKPLGYGTAEFAKRITLGRLSEPEDVAACVSYLASPDSDYMTGQSLLIDGGMVFN
